# Paper PMC6526949 (Biochemistry, 2018)
# Biological target: the molecule itself
# Assay: SEC
protein,measurement,value
"Escherichia coli O-acetylserine sulfhydrylase isoenzyme B (CysM) (enzyme, UniProt P16703 1-303, looked up, PLP cofactor ligated through a Schiff base to the ε-amino group of Lysine-41 (PLP:CysM ratio approximately 0.57:1)) MSTLEQTIGNTPLVKLQRMGPDNGSEVWLKLEGNNPAGSVKDRAALSMIVEAEKRGEIKPGDVLIEATSGNTGIALAMIAALKGYRMKLLMPDNMSQERRAAMRAYGAELILVTKEQGMEGARDLALEMANRGEGKLLDQFNNPDNPYAHYTTTGPEIWQQTGGRITHFVSSMGTTGTITGVSRFMREQSKPVTIVGLQPEEGSSIPGIRRWPTEYLPGIFNASLVDEVLDIHQRDAENTMRELAVREGIFCGVSSGGAVAGALRVAKANPDAVVVAIICDRGDRYLSTGVFGEEHFSQGAGI",stoichiometry N,2
